# According to article PMC9986279, “Biochemical and genetic examination of two aminotransferases from the hyperthermophilic archaeon Thermococcus kodakarensis” (Frontiers in Microbiology, 2023):
# T1: TK0548 protein (Thermococcus kodakarensis, UniProt Q5JF51)
# T1 construct: full length, no tag (own stop codon in primer), pET21a(+), E. coli BL21-CodonPlus(DE3)-RIL; monomer 43,608 Da, dimer (85 kDa)
# T1 sequence (Q5JF51 1-389): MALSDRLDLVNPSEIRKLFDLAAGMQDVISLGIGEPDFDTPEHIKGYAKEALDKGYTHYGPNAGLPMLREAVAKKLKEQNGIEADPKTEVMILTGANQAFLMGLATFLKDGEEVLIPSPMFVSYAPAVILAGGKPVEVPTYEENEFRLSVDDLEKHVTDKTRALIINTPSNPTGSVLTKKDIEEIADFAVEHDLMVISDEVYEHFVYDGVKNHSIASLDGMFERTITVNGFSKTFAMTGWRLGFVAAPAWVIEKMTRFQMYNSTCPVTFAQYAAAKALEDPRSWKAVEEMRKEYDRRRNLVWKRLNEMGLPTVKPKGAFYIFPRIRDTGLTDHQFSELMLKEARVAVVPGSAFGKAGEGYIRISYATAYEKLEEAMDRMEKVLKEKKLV
# B1: TK0548 protein (Thermococcus kodakarensis KOD1) (protein)
# chain: T1 sequence (Q5JF51 1-389)
# notes: full length, no tag (own stop codon in primer), pET21a(+), E. coli BL21-CodonPlus(DE3)-RIL; monomer 43,608 Da, dimer (85 kDa)
# B2: TK2268 protein (Thermococcus kodakarensis KOD1) (protein)
# chain: MRYKKRKYFMAGRINILQRSKIRELFEKASKMENVISLGIGEPDFDTPEVIKEAAKRAIDEGYTHYTPNAGIPEFREAIAEYYKEFYNVDVDMNNIIVTAGAYEATYLAFESILEQGDDVIIPDPAFVCYVEDAKIAEAGIIRIPLREENKFRIDPDELLEAITKRTRMIVMNYPNNPTGAIMKKDVAKAIADIAQDYNIYILSDEPYEHFLYEGARHHPMIKYAPDNTILANSFSKTFAMTGWRLGFAIAPEQVIRDMIKLHAYVIGNVTSFIQIAGITALRDKRSWEAVERMRQVYDERRKLVLKYLNDMPHITPFRPKGAFYIWAKIDPELDMTSEDFAEWLLENAGVVVIPGTAFGRQGEGWIRISYATEKEKLIEAMERMKEALSKL
# notes: full length, C-terminal His6-tag kept, expressed in T. kodakarensis KPD2; monomer 45,116 Da; dimer (98 kDa) that may assemble to octamer (327 kDa)
# Tests used:
# [1] = biological target: T2, TK2268 protein (Thermococcus kodakarensis, UniProt Q5JHU0); assay: aminotransferase activity with and without added PLP; type: biochemical; conditions: 20 μM PLP, 50 mM HEPES pH 7.4, 80°C
# T2 construct: full length, C-terminal His6-tag kept, expressed in T. kodakarensis KPD2; monomer 45,116 Da; dimer (98 kDa) that may assemble to octamer (327 kDa)
# [2] = biological target: T1, TK0548 protein; assay: as above; type: biochemical; conditions: 20 μM PLP, 50 mM HEPES pH 7.4, 80°C
# [3] = substrate: N[C@@H](Cc1c[nH]c2ccccc12)C(=O)O; assay: aminotransferase assay, Glu formed quantified by HPLC after o-phthalaldehyde derivatization; type: biochemical, Thermococcus kodakarensis; conditions: 10 mM 2-oxoglutarate, 20 μM PLP, 50 mM HEPES pH 7.4, 80°C
# Source text: (§1) aminotransferase assay, Glu formed quantified by HPLC after o-phthalaldehyde derivatization on TK0548 protein
# [4] = substrate: N[C@@H](Cc1c[nH]cn1)C(=O)O; assay: as above; type: biochemical, Thermococcus kodakarensis; conditions: 10 mM 2-oxoglutarate, 20 μM PLP, 50 mM HEPES pH 7.4, 80°C
# Source text: as §1
# [5] = substrate: O=C(O)CCC(=O)C(=O)O; assay: as above; type: biochemical, Thermococcus kodakarensis; conditions: 10 mM Phe, 20 μM PLP, 50 mM HEPES pH 7.4, 80°C
# Source text: as §1
# [6] = substrate: CSCC[C@H](N)C(=O)O; assay: as above; type: biochemical, Thermococcus kodakarensis; conditions: 10 mM 2-oxoglutarate, 20 μM PLP, 50 mM HEPES pH 7.4, 80°C
# Source text: as §1
# [7] = substrate: N[C@@H](Cc1ccccc1)C(=O)O; assay: as above; type: biochemical, Thermococcus kodakarensis; conditions: 10 mM 2-oxoglutarate, 20 μM PLP, 50 mM HEPES pH 7.4, 80°C
# Source text: as §1
# [8] = substrate: N[C@@H](Cc1ccc(O)cc1)C(=O)O; assay: as above; type: biochemical, Thermococcus kodakarensis; conditions: 10 mM 2-oxoglutarate, 20 μM PLP, 50 mM HEPES pH 7.4, 80°C
# Source text: as §1
# [9] = substrate: CC(=O)C(=O)O; assay: aminotransferase assay, Ala formed quantified by HPLC after o-phthalaldehyde derivatization; type: biochemical, Thermococcus kodakarensis; conditions: 10 mM Phe, 20 μM PLP, 50 mM HEPES pH 7.4, 80°C
# Source text: aminotransferase assay, Ala formed quantified by HPLC after o-phthalaldehyde derivatization on TK0548 protein
# [10] = substrate: CC(C)C[C@H](N)C(=O)O; assay: as above; type: biochemical, Thermococcus kodakarensis; conditions: 10 mM pyruvate, 20 μM PLP, 50 mM HEPES pH 7.4, 80°C
# Source text: (§2) aminotransferase assay, Ala formed quantified by HPLC after o-phthalaldehyde derivatization on TK2268 protein
# [11] = substrate: CC(=O)C(=O)O; assay: as above; type: biochemical, Thermococcus kodakarensis; conditions: 50 mM Leu, 20 μM PLP, 50 mM HEPES pH 7.4, 80°C
# Source text: as §2
# [12] = substrate: N[C@@H](CCC(=O)O)C(=O)O; assay: as above; type: biochemical, Thermococcus kodakarensis; conditions: 10 mM pyruvate, 20 μM PLP, 50 mM HEPES pH 7.4, 80°C
# Source text: as §2
# [13] = substrate: N[C@@H](CC(=O)O)C(=O)O; assay: purified protein; conditions: 10 mM pyruvate, 20 μM PLP, 50 mM HEPES pH 7.4, 80°C
# [14] = substrate: O=C(O)CCC(=O)C(=O)O; assay: aminotransferase assay, Glu formed quantified by HPLC after o-phthalaldehyde derivatization; type: biochemical, Thermococcus kodakarensis; conditions: 50 mM Leu, 20 μM PLP, 50 mM HEPES pH 7.4, 80°C
# Source text: (§3) aminotransferase assay, Glu formed quantified by HPLC after o-phthalaldehyde derivatization on TK2268 protein
# [15] = substrate: N[C@@H](Cc1ccc(O)cc1)C(=O)O; assay: as above; type: biochemical, Thermococcus kodakarensis; conditions: 10 mM 2-oxoglutarate, 20 μM PLP, 50 mM HEPES pH 7.4, 80°C; remark: listed apart in the source
# Source text: as §3
molecule,measurement,setting,value
Cc1ncc(COP(=O)(O)O)c(C=O)c1O [pyridoxal 5′-phosphate],aminotransferase activity with and without added PLP,[1],suggesting that the TK0548 and TK2268 proteins are PLP-dependent aminotransferases
same,aminotransferase activity with and without added PLP,[2],suggesting that the TK0548 and TK2268 proteins are PLP-dependent aminotransferases
B1,Km,[3],1100 ± 100 µM
same,Vmax,[3],359 µmol/min/mg
same,kcat,[3],261 ± 10 s⁻¹
same,kcat/Km,[3],237000 M⁻¹ s⁻¹
same,Km,[4],4400 ± 400 µM
same,Vmax,[4],179 µmol/min/mg
same,kcat,[4],130 ± 6 s⁻¹
same,kcat/Km,[4],29600 M⁻¹ s⁻¹
same,Km,[5],1500 ± 200 µM
same,Vmax,[5],334 µmol/min/mg
same,kcat,[5],243 ± 10 s⁻¹
same,kcat/Km,[5],162000 M⁻¹ s⁻¹
same,Km,[6],64000 ± 9000 µM
same,Vmax,[6],169 µmol/min/mg
same,kcat,[6],123 ± 14 s⁻¹
same,kcat/Km,[6],1920 M⁻¹ s⁻¹
same,Km,[7],670 ± 60 µM
same,Vmax,[7],483 µmol/min/mg
same,kcat,[7],351 ± 10 s⁻¹
same,kcat/Km,[7],524000 M⁻¹ s⁻¹
same,Km,[8],1400 ± 200 µM
same,Vmax,[8],419 µmol/min/mg
same,kcat,[8],305 ± 19 s⁻¹
same,kcat/Km,[8],218000 M⁻¹ s⁻¹
same,Km,[9],48000 ± 5000 µM
same,Vmax,[9],137 µmol/min/mg
same,kcat,[9],100 ± 7 s⁻¹
same,kcat/Km,[9],2070 M⁻¹ s⁻¹
B2,Km,[10],36300 ± 4300 µM
same,Vmax,[10],4.68 µmol/min/mg
same,kcat,[10],3.52 ± 0.23 s⁻¹
same,kcat/Km,[10],100 M⁻¹ s⁻¹
same,Km,[11],2720 ± 350 µM
same,Vmax,[11],3.76 µmol/min/mg
same,kcat,[11],2.83 ± 0.16 s⁻¹
same,kcat/Km,[11],1040 M⁻¹ s⁻¹
same,Km,[12],2170 ± 270 µM
same,Vmax,[12],7.42 µmol/min/mg
same,kcat,[12],5.57 ± 0.23 s⁻¹
same,kcat/Km,[12],2570 M⁻¹ s⁻¹
same,Km,[13],2140 ± 220 µM
same,Vmax,[13],5.42 µmol/min/mg
same,kcat,[13],4.07 s⁻¹
same,kcat/Km,[13],1900 M⁻¹ s⁻¹
same,Km,[14],190 ± 30 µM
same,Vmax,[14],4.45 µmol/min/mg
same,kcat,[14],3.35 ± 0.15 s⁻¹
same,kcat/Km,[14],17600 M⁻¹ s⁻¹
same,Km,[15],1450 ± 260 µM
same,Vmax,[15],0.34 µmol/min/mg
same,kcat,[15],0.26 ± 0.02 s⁻¹
same,kcat/Km,[15],180 M⁻¹ s⁻¹
